Source: the supplement of paper PMC10065799, “High-throughput profiling of sequence recognition by tyrosine kinases and SH2 domains using bacterial peptide display” (eLife, 2023)

Tests used:
[1] = test system: AncSZ; test: phosphorylation enrichment, bacterial display (enrichment ratio); higher = better substrate or ligand; peptides without Tyr show the background
[2] = target: EPHB1 (UniProt P54762); test: as above
[3] = target: EPHB2 (UniProt P29323); test: as above
[4] = target: FGFR1 (UniProt P11362); test: as above
[5] = target: FGFR3 (UniProt P22607); test: as above
[6] = test system: Fer (mouse); test: as above
[7] = target: Fes (UniProt P07332); test: as above
[8] = target: Fyn (UniProt P06241); test: as above
[9] = target: Hck (UniProt P08631); test: as above
[10] = target: Jak2 (UniProt O60674); test: as above
[11] = target: MERTK (UniProt Q12866); test: as above
[12] = test system: c-Abl (mouse); test: as above
[13] = test system: c-Src; test: as above
[14] = target: Grb2 SH2 (UniProt P62993); test: SH2 binding enrichment of the phosphorylated peptide, bacterial display (enrichment ratio); higher = better substrate or ligand; peptides without Tyr show the background
[15] = target: SHP2-C SH2; test: as above
[16] = target: c-Src SH2; test: as above
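Wherever SH2 binding enrichment of the phosphorylated peptide, bacterial display is given: peptide library displayed on the E. coli surface as eCPX fusions, selected cells deep-sequenced, score is each peptide's frequency after selection divided by its frequency in the input.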
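Wherever phosphorylation enrichment, bacterial display is given: 11-residue human phosphosite peptides and single-mutation variants displayed on the E. coli surface, counted by deep sequencing, each peptide's frequency after selection divided by its frequency in the unselected input library; frequency after pTyr selection over input frequency; kinase dosed for 20-30% of maximal phosphorylation in three min.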

EPHB2, sequence (P29323 whole entry, looked up): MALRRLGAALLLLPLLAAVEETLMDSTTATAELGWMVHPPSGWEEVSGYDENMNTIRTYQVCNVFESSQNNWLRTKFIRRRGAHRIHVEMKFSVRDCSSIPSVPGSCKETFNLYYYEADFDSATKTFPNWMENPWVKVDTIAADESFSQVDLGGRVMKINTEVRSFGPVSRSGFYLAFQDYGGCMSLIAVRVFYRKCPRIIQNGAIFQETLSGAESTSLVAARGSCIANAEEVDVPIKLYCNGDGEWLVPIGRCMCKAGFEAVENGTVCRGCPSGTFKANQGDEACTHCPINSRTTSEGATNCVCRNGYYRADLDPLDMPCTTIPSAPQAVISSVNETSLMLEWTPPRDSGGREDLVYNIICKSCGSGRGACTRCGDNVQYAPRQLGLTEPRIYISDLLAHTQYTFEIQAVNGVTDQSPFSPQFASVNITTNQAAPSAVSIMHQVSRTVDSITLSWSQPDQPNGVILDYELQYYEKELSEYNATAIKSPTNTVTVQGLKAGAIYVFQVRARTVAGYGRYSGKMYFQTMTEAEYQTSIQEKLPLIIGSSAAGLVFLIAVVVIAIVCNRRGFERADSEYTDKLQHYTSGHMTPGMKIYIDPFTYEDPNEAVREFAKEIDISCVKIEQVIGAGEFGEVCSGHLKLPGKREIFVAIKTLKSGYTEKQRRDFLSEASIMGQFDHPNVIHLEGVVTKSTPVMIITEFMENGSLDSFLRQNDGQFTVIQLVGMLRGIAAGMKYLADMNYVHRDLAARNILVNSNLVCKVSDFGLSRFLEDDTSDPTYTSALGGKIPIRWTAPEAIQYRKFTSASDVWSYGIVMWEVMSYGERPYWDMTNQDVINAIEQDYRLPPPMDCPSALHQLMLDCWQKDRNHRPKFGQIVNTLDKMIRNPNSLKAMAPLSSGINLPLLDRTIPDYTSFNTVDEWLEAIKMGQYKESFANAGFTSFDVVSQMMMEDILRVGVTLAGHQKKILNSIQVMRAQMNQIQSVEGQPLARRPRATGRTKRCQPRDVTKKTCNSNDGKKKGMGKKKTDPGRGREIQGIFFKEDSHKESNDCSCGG
Fyn, sequence (P06241 whole entry, looked up): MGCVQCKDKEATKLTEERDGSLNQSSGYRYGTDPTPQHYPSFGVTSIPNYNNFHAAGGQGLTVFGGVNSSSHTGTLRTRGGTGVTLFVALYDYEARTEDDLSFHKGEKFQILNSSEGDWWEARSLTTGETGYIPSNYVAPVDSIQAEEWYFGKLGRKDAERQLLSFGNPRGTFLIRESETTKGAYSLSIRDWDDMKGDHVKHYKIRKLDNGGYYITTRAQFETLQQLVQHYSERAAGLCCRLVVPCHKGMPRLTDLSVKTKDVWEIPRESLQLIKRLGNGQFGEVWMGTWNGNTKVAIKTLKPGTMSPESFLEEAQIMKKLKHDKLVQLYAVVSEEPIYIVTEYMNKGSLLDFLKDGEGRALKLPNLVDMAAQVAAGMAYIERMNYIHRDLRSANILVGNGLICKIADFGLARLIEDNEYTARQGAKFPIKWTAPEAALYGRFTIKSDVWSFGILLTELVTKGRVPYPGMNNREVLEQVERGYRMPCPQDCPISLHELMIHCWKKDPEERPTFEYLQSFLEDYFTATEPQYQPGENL
Hck, sequence (P08631 whole entry, looked up): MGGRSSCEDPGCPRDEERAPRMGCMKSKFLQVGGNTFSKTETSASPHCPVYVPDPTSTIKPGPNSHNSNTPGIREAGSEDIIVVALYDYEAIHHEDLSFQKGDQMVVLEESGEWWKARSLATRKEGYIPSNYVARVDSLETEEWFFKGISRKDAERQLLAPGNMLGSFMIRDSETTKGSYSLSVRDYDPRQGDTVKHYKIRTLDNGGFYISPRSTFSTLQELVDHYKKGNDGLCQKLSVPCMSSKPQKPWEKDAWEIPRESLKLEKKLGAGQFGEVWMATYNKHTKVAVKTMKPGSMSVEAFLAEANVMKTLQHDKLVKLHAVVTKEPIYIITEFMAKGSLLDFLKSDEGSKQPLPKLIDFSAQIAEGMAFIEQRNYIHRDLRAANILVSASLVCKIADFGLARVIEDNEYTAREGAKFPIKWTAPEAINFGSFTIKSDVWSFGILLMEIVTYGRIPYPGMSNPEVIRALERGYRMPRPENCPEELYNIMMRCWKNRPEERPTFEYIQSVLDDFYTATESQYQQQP
MERTK, sequence (Q12866 whole entry, looked up): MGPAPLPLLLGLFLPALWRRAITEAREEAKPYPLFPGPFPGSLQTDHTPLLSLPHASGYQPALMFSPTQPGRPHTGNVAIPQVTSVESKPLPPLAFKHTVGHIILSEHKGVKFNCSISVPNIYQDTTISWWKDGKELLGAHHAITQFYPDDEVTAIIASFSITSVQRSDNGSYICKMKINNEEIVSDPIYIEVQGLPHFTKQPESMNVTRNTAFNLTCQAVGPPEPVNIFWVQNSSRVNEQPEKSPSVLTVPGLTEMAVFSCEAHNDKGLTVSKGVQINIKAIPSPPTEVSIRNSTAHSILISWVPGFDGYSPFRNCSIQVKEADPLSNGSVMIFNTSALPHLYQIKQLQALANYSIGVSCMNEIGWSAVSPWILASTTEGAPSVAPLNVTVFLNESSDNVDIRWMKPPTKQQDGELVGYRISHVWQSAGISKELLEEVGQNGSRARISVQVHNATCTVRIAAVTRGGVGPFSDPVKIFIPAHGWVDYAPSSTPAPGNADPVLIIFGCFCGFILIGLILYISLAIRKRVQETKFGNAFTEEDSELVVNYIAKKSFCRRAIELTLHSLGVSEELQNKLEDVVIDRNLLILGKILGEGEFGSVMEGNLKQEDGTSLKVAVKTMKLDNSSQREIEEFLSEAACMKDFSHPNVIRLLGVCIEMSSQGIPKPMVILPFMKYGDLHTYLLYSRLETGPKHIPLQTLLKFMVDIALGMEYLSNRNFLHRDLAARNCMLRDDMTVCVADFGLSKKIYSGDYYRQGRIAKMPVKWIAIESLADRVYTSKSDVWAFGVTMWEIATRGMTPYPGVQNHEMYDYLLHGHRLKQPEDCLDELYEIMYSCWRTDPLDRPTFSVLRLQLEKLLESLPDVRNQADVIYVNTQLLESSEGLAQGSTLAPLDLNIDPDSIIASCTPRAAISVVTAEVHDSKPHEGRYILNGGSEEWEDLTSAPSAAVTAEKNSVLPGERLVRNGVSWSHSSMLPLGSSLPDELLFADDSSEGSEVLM
Fes, sequence (P07332 whole entry, looked up): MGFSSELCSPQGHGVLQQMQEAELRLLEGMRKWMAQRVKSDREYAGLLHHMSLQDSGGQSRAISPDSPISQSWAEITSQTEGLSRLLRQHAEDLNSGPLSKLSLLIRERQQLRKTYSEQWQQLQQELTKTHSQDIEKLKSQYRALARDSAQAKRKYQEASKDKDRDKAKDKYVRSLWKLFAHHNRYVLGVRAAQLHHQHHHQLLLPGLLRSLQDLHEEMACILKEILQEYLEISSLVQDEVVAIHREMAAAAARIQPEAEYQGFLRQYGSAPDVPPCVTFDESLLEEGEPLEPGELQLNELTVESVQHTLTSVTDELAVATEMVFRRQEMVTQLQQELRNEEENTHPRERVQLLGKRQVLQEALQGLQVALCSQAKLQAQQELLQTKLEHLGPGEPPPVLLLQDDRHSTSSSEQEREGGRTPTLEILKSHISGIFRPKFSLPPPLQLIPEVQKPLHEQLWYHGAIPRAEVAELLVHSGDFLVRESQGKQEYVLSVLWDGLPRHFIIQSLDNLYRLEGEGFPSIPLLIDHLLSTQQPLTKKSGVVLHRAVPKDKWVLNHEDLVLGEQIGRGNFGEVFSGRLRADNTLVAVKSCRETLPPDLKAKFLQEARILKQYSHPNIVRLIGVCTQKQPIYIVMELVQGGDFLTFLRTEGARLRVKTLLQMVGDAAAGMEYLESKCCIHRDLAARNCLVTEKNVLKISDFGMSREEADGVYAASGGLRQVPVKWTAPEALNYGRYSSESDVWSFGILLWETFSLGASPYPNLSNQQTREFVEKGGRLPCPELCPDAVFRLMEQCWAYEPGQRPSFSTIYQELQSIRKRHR
FGFR1, sequence (P11362 whole entry, looked up): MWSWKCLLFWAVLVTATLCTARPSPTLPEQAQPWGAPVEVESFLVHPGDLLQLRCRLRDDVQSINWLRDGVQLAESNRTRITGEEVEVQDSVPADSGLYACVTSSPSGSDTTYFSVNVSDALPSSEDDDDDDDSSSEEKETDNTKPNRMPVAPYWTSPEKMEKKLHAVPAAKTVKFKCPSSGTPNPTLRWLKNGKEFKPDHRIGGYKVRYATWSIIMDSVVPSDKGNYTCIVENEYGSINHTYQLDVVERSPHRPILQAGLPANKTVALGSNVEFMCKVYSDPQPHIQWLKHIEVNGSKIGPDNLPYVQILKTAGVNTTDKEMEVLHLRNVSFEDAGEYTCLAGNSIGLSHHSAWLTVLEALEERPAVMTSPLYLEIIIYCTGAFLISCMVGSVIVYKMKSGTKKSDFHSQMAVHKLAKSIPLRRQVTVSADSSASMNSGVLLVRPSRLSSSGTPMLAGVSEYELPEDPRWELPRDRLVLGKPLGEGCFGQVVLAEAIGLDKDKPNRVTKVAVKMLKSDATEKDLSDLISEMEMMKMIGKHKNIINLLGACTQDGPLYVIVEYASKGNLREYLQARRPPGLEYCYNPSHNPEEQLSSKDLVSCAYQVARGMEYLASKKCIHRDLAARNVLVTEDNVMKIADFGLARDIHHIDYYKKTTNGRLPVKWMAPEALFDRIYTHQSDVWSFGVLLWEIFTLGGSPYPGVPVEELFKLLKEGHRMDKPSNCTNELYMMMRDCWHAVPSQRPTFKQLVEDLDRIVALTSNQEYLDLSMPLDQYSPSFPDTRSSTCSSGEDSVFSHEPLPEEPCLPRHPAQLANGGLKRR

Row | Sequence | SH2 binding enrichment [14] | SH2 binding enrichment [15] | SH2 binding enrichment [16] | phosphorylation enrichment [1] | phosphorylation enrichment [2] | phosphorylation enrichment [3] | phosphorylation enrichment [4] | phosphorylation enrichment [5] | phosphorylation enrichment [6] | phosphorylation enrichment [7] | phosphorylation enrichment [8] | phosphorylation enrichment [9] | phosphorylation enrichment [10] | phosphorylation enrichment [11] | phosphorylation enrichment [12] | phosphorylation enrichment [13]
1 | EKQARYEIVVE [CDH5_Y223] | 0.856 | 0.666 | 11 | 0.909 | 0.65 | 0.57 | 0.392 | 0.532 | 0.466 | 0.852 | 0.433 | 0.486 | 0.846 | 0.484 | 0.613 | 0.477
2 | EKSREYDRLYE [PIK3R1_Y463] | 0.966 | 0.612 | 16.9 | 1.32 | 0.663 | 0.68 | 0.61 | 0.706 | 0.711 | 1.09 | 0.708 | 0.944 | 0.828 | 0.597 | 0.938 | 0.587
3 | ELTSKYRGGGG [HBA1_Y141_V136E] | 0.939 | 0.725 | 0.469 | 0.515 | 0.412 | 0.385 | 0.333 | 0.411 | 0.313 | 0.573 | 0.353 | 0.422 | 0.678 | 0.503 | 0.471 | 0.434
4 | ENFDDYMKEVG [FABP4_Y20] | 1.04 | 0.791 | 0.802 | 1.23 | 0.579 | 0.623 | 0.569 | 0.699 | 0.687 | 1.22 | 0.496 | 0.527 | 1.06 | 0.396 | 0.707 | 0.539
5 | ENFSEYQEIAV [HEMGN_Y150] | 0.98 | 0.663 | 0.627 | 1.51 | 2.29 | 1.24 | 1.59 | 1.38 | 1.4 | 1.24 | 0.586 | 0.984 | 1.28 | 0.507 | 0.957 | 0.616
6 | EPYKVYRIVPE [IRF8_Y110] | 0.762 | 0.646 | 0.598 | 0.746 | 0.474 | 0.54 | 0.521 | 0.612 | 0.447 | 0.728 | 0.641 | 0.574 | 0.658 | 0.462 | 0.473 | 0.605
7 | EQLQSYQAEII [KRT33A_Y268] | 0.708 | 0.683 | 0.472 | 1.12 | 0.524 | 0.571 | 0.54 | 0.821 | 0.526 | 1.16 | 0.516 | 0.518 | 1.15 | 0.45 | 0.988 | 0.555
8 | ERDYTYDELLN [EIF2S2_Y176_E177D] | 0.786 | 0.688 | 1.83 | 1.17 | 0.742 | 0.682 | 0.558 | 0.791 | 0.506 | 1.27 | 0.631 | 1.04 | 1.21 | 0.498 | 0.887 | 0.661
9 | ESAAIYNPVIF [RHO_Y301_K296E_YF] | 0.848 | 0.678 | 0.493 | 1.03 | 0.452 | 0.579 | 0.673 | 0.675 | 17.2 | 1.25 | 8.03 | 9.56 | 0.707 | 4.16 | 1.28 | 6.99
10 | ESSKAYERALS [TTC37_Y1074] | 0.787 | 0.571 | 0.468 | 0.77 | 0.413 | 0.624 | 0.423 | 0.476 | 0.418 | 0.816 | 0.412 | 0.444 | 0.594 | 0.417 | 0.618 | 0.409
11 | ETKKQYNSFTF [TMED3_Y85_D86N_YF] | 0.65 | 0.636 | 0.411 | 0.64 | 0.442 | 0.475 | 0.366 | 0.454 | 0.513 | 0.711 | 0.432 | 0.417 | 0.719 | 0.396 | 0.561 | 0.399
12 | EVASVYESYQP [MAVS_Y92_Q93E] | 0.919 | 0.504 | 0.727 | 1.83 | 0.948 | 1.61 | 0.527 | 0.737 | 10.1 | 1.11 | 8.41 | 6.67 | 0.849 | 0.71 | 0.783 | 5.67
13 | EVEPRYVVLFD [ERCC4_Y577_YF] | 0.802 | 1.33 | 3.48 | 1.18 | 3.47 | 3.06 | 0.999 | 0.973 | 0.568 | 1.04 | 0.547 | 0.505 | 1.11 | 4.21 | 0.777 | 0.667
14 | EVLKNYNQQKD [GOLGA4_Y1551] | 0.608 | 0.669 | 0.32 | 0.949 | 0.504 | 0.505 | 0.565 | 0.702 | 0.552 | 1.07 | 0.443 | 0.452 | 0.969 | 0.439 | 0.717 | 0.388
15 | EVVGGYSVHNA [MLH1_Y183_R182G] | 0.951 | 0.537 | 0.437 | 0.528 | 0.306 | 0.314 | 0.339 | 0.599 | 0.372 | 0.729 | 0.324 | 0.44 | 0.504 | 0.369 | 0.643 | 0.336
16 | EWCSPYGLTPR [GRIN3B_Y601_R598C] | 0.644 | 0.629 | 0.535 | 0.815 | 0.556 | 0.569 | 0.474 | 0.613 | 1.2 | 1.02 | 1.76 | 1.04 | 0.778 | 1.01 | 0.734 | 3.91
17 | EYKDAYTFAAD [BRDT_Y335_K336T] | 0.876 | 0.727 | 0.61 | 1.15 | 0.553 | 0.595 | 0.511 | 0.74 | 0.555 | 1.09 | 0.833 | 0.548 | 1.11 | 0.51 | 0.556 | 1.29
18 | FADIAYSYRHG [PAH_Y166_N167S] | 0.822 | 0.784 | 0.496 | 0.726 | 0.423 | 0.418 | 0.562 | 0.508 | 0.453 | 0.658 | 0.512 | 0.568 | 0.727 | 0.46 | 0.63 | 0.714
19 | FAFQLYDLDPD [CHP2_Y123_R127P_YF] | 1.02 | 0.999 | 0.982 | 1.26 | 0.981 | 0.698 | 0.568 | 0.907 | 0.62 | 1.26 | 2.84 | 1.8 | 1.25 | 0.571 | 1.05 | 3.52

Continued, in another order:

Row | SH2 binding enrichment [14] | SH2 binding enrichment [15] | SH2 binding enrichment [16] | Sequence | phosphorylation enrichment [1] | phosphorylation enrichment [2] | phosphorylation enrichment [3] | phosphorylation enrichment [4] | phosphorylation enrichment [5] | phosphorylation enrichment [6] | phosphorylation enrichment [7] | phosphorylation enrichment [8] | phosphorylation enrichment [9] | phosphorylation enrichment [10] | phosphorylation enrichment [11] | phosphorylation enrichment [12] | phosphorylation enrichment [13]
20 | 0.745 | 0.559 | 0.564 | EKLQQYLAPGM [EPHB3_Y600_I601L] | 0.68 | 0.408 | 0.489 | 0.466 | 0.493 | 0.54 | 0.863 | 0.398 | 0.48 | 0.57 | 0.487 | 0.732 | 0.347
21 | 0.864 | 0.711 | 0.614 | ELPEKYSQNIF [PKP2_Y626_YF] | 0.989 | 0.528 | 0.492 | 0.579 | 0.659 | 0.423 | 1.05 | 0.413 | 0.507 | 1.09 | 0.538 | 0.605 | 0.539
22 | 1.17 | 0.855 | 1.06 | EMFNPYYGLFE [NEDD4L_Y679] | 2.04 | 5.74 | 5.92 | 5.41 | 4.84 | 6.32 | 1.64 | 8.62 | 7.91 | 6.66 | 6.86 | 2.2 | 6.95
23 | 1.22 | 1.03 | 0.692 | EMTAEYACTRK [ACAD9_Y325] | 0.703 | 0.406 | 0.492 | 0.397 | 0.551 | 0.497 | 0.706 | 0.434 | 0.627 | 0.499 | 0.457 | 0.603 | 0.412
24 | 0.827 | 0.749 | 0.617 | ENFSEYQEISV [HEMGN_Y150_A154S] | 1.59 | 2.45 | 1.46 | 1.89 | 1.53 | 1.42 | 1.39 | 0.594 | 0.987 | 1.14 | 0.659 | 0.965 | 0.873
25 | 0.79 | 0.566 | 0.499 | EQQNMYRLKVL [ABCC6_Y372] | 0.861 | 0.56 | 0.5 | 0.521 | 0.545 | 0.488 | 0.706 | 0.41 | 0.475 | 0.561 | 0.401 | 0.619 | 0.452
26 | 0.972 | 0.905 | 0.594 | ETKEDYEKILV [ANXA1_Y335_G333E] | 1.09 | 0.616 | 0.598 | 0.509 | 0.743 | 0.598 | 1.23 | 0.501 | 0.572 | 1.01 | 0.53 | 0.779 | 0.484
27 | 0.671 | 2.27 | 0.54 | ETKTPYTVILI [SBDS_Y128_R126T] | 0.999 | 0.543 | 0.637 | 0.592 | 0.794 | 1.06 | 1.22 | 0.483 | 0.569 | 0.961 | 0.534 | 0.651 | 0.485
28 | 0.894 | 1.84 | 8.72 | EVEPRYVVLYD [ERCC4_Y577] | 1.22 | 3.5 | 3.44 | 1.36 | 0.986 | 0.547 | 1.13 | 0.664 | 0.646 | 1.07 | 5.22 | 0.91 | 0.683
29 | 0.866 | 0.773 | 0.542 | FADIAYNYRHR [PAH_Y166_G171R] | 0.624 | 0.391 | 0.44 | 0.427 | 0.435 | 0.436 | 0.687 | 0.27 | 0.341 | 0.533 | 0.398 | 0.511 | 0.429
